Experimental data taken from article PMC4960241.

Molecular target: Helicobacter pylori dimeric oxidoreductase DsbK (HP0231), native (Helicobacter pylori)
Test: SEC; size exclusion; conditions not shown (Supplementary Table S3)

- stoichiometry N: 2
Substance: Helicobacter pylori dimeric oxidoreductase DsbK (HP0231), native (enzyme)
